Source: patent publication US20140079711A1

Assays:
[1] = target: CD147 N-domain (Asp19 to Asn117 of SEQ ID NO: 1) (human); assay: SPR (Biacore 3000), mAb captured by anti-mouse Fc, N-domain fragment injected
[2] = target: CD147 Asp19-Asn117-Fc fusion protein (human) (UniProt P35613); assay: competition ELISA on coated CD147 Asp19-Asn117-Fc; competitor 2H3; 5F6 against labeled 2H3
[3] = target: CD147 Asp19-Asn117-Fc fusion protein (human) (UniProt P35613); assay: competition ELISA on coated CD147 Asp19-Asn117-Fc; competitor 2H3; 2C8 as competitor against 2H3 on coated CD147 Asp19-Asn117-Fc
[4] = target: CD147 Asp19-Asn117-Fc fusion protein (human) (UniProt P35613); assay: competition ELISA on coated CD147 Asp19-Asn117-Fc; competitor 5F6; 2C8 as competitor against 5F6 on coated CD147 Asp19-Asn117-Fc

Binder	Kd [1] [nM]	IC50 [2] [nM]	IC50 [3] [nM]	IC50 [4] [nM]
5F6(mIgG1) (antibody, V domains shown) VH: EMKLEESGGGLVQPGGSMKLSCVASGFTFSNYWMNWVRQSPEKGLEWVAQIRLKSYNYATHYAESVKGRFTISRDDSKSSVYLQMNNLRAEDTGIYYCTPDGSDYWGQGTTLTVSS VL: SIVMTQTPKFLLVSAGDRVTITCKASQSVSNDVAWYQQKPGQSPKLLIYYASNRYTGVPDRFTGSGYGTDFTFTISTVQAEDLAVYFCQQDYSSPYTFGGGTKLEIK	0.46	1000	–	–
2C8(mIgG1) (antibody, V domains shown) VH: EMKLEESGGGLVQPGGSMKLSCVASGFTFSNYRMNWVRQSPEKGLEWVAQIRLKSYNYATHYAESVKGRFTISRDDSKSSVYLQMNNLRAEDTGIYYCTPDGSDYWGQGTTLTVSS VL: DILMTQSPSSMSVSLGDTVSITCHASQGISSSIGWLQQKPGKSFKGLIYHGTNLEDGVPSRFTGSGSGADYSLTISSLESEDFADYYCVQYAQFPYTFGGGTKLEIK	0.43	–	30	30
